# Reference: US20240269303A1, “CELL TARGETING CONSTRUCTS AND USES THEREOF” (Research Development Foundation, priority 2022, published 2024)
# Like-named read-outs stand apart in the source and are kept apart here.
# B1: FcST4-MMAE: Mutated Fc with two receptor binding domains (ST) in series per chain (4 in dimer), sortase-conjugated to MMAE (conjugate)
# chain: EPKSCDKTHTCPPCPAPELLGGPSVFLFPPKPKDTLMISRTPEVTCVVVDVSHEDPEVKFNWYVDGVEVHNAKTKPREEQYNSTYRVVSVLTVDHHDWLNGKEYKCKVSNKALPAPIEKTISKAKGQPREPQVYTLPPSRDELTKNQVSLTCLVKGFYPSDIAVEWESNGQPENNYKTTPPVLDSDGSFFLYSKLTVDKSRWQQGNVFSCSVMHEALHSHYTQKSLSLSPGKGGGGSGGGGSSRGIKGKRQRRISAEGSQACAKGCELCSEVNGCLKCSPKLFILLERNDIRQVGVCLPSCPPGYFDARNPDMNKCIKCKIEHCEACFSHNFCTKCKEGLYLHKGRCYPACPEGSSAANGTMECSSPGGGGSGGGGSSRGIKGKRQRRISAEGSQACAKGCELCSEVNGCLKCSPKLFILLERNDIRQVGVCLPSCPPGYFDARNPDMNKCIKCKIEHCEACFSHNFCTKCKEGLYLHKGRCYPACPEGSSAANGTMECSSPGGGGSGGGGSLPETGGG
# modifications: non-natural residues
# B2: FcF2-PNU159682: FcF2-His conjugated with PNU159682, an anthracycline derivative, using sortase A (conjugate)
# chain: EPKSCDKTHTCPPCPAPELLGGPSVFLFPPKPKDTLMISRTPEVTCVVVDVSHEDPEVKFNWYVDGVEVHNAKTKPREEQYNSTYRVVSVLTVDHHDWLNGKEYKCKVSNKALPAPIEKTISKAKGQPREPQVYTLPPSRDELTKNQVSLTCLVKGFYPSDIAVEWESNGQPENNYKTTPPVLDSDGSFFLYSKLTVDKSRWQQGNVFSCSVMHEALHSHYTQKSLSLSPGKGGGGSGGGGSSRGIKGKRQRRISAEGSQACAKGCELCSEVNGCLKCSPKLFILLERNDIRQVGVCLPSCPPGYFDARNPDMNKCIKCKIEHCEACFSHNFCTKCKEGLYLHKGRCYPACPEGSSAANGTMECSSPGGGGSGGGGSLPET
# modifications: cyclised or stapled
# B3: FcF2-Q71R-MMAE (conjugate)
# chain: EPKSCDKTHTCPPCPAPELLGGPSVFLFPPKPKDTLMISRTPEVTCVVVDVSHEDPEVKFNWYVDGVEVHNAKTKPREEQYNSTYRVVSVLTVDHHDWLNGKEYKCKVSNKALPAPIEKTISKAKGQPREPQVYTLPPSRDELTKNQVSLTCLVKGFYPSDIAVEWESNGQPENNYKTTPPVLDSDGSFFLYSKLTVDKSRWQQGNVFSCSVMHEALHSHYTQKSLSLSPGKGGGGSGGGGSSRGIKGKRQRRISAEGSQACAKGCELCSEVNGCLKCSPKLFILLERNDIRRVGVCLPSCPPGYFDARNPDMNKCIKCKIEHCEACFSHNFCTKCKEGLYLHKGRCYPACPEGSSAANGTMECSSPGGGGSGGGGSLPETGGG
# modifications: non-natural residues
# B4: FcF2-R30A-MMAE: FcF2-MMAE with R30A substitution in the Fu1-Fu2 region (SEQ ID NO: 102) (conjugate)
# chain: EPKSCDKTHTCPPCPAPELLGGPSVFLFPPKPKDTLMISRTPEVTCVVVDVSHEDPEVKFNWYVDGVEVHNAKTKPREEQYNSTYRVVSVLTVDHHDWLNGKEYKCKVSNKALPAPIEKTISKAKGQPREPQVYTLPPSRDELTKNQVSLTCLVKGFYPSDIAVEWESNGQPENNYKTTPPVLDSDGSFFLYSKLTVDKSRWQQGNVFSCSVMHEALHSHYTQKSLSLSPGKGGGGSGGGGSSRGIKGKRQARISAEGSQACAKGCELCSEVNGCLKCSPKLFILLERNDIRQVGVCLPSCPPGYFDARNPDMNKCIKCKIEHCEACFSHNFCTKCKEGLYLHKGRCYPACPEGSSAANGTMECSSPGGGGSGGGGSLPETGGG
# modifications: non-natural residues
# B5: FcF2-R28A-MMAE: FcF2-MMAE with R28A substitution in the Fu1-Fu2 region (SEQ ID NO: 98) (conjugate)
# chain: EPKSCDKTHTCPPCPAPELLGGPSVFLFPPKPKDTLMISRTPEVTCVVVDVSHEDPEVKFNWYVDGVEVHNAKTKPREEQYNSTYRVVSVLTVDHHDWLNGKEYKCKVSNKALPAPIEKTISKAKGQPREPQVYTLPPSRDELTKNQVSLTCLVKGFYPSDIAVEWESNGQPENNYKTTPPVLDSDGSFFLYSKLTVDKSRWQQGNVFSCSVMHEALHSHYTQKSLSLSPGKGGGGSGGGGSSRGIKGKAQRRISAEGSQACAKGCELCSEVNGCLKCSPKLFILLERNDIRQVGVCLPSCPPGYFDARNPDMNKCIKCKIEHCEACFSHNFCTKCKEGLYLHKGRCYPACPEGSSAANGTMECSSPGGGGSGGGGSLPETGGG
# modifications: non-natural residues
# B6: FcF2-F106R-F110R-MMAE (conjugate)
# chain: EPKSCDKTHTCPPCPAPELLGGPSVFLFPPKPKDTLMISRTPEVTCVVVDVSHEDPEVKFNWYVDGVEVHNAKTKPREEQYNSTYRVVSVLTVDHHDWLNGKEYKCKVSNKALPAPIEKTISKAKGQPREPQVYTLPPSRDELTKNQVSLTCLVKGFYPSDIAVEWESNGQPENNYKTTPPVLDSDGSFFLYSKLTVDKSRWQQGNVFSCSVMHEALHSHYTQKSLSLSPGKGGGGSGGGGSSRGIKGKRQRRISAEGSQACAKGCELCSEVNGCLKCSPKLFILLERNDIRQVGVCLPSCPPGYFDARNPDMNKCIKCKIEHCEACRSHNRCTKCKEGLYLHKGRCYPACPEGSSAANGTMECSSPGGGGSGGGGSLPETGGG
# modifications: non-natural residues
# B7: FcF-Q71R-F106R-F110R-MMAE (conjugate)
# chain: EPKSCDKTHTCPPCPAPELLGGPSVFLFPPKPKDTLMISRTPEVTCVVVDVSHEDPEVKFNWYVDGVEVHNAKTKPREEQYNSTYRVVSVLTVDHHDWLNGKEYKCKVSNKALPAPIEKTISKAKGQPREPQVYTLPPSRDELTKNQVSLTCLVKGFYPSDIAVEWESNGQPENNYKTTPPVLDSDGSFFLYSKLTVDKSRWQQGNVFSCSVMHEALHSHYTQKSLSLSPGKGGGGSGGGGSSRGIKGKRQRRISAEGSQACAKGCELCSEVNGCLKCSPKLFILLERNDIRRVGVCLPSCPPGYFDARNPDMNKCIKCKIEHCEACRSHNRCTKCKEGLYLHKGRCYPACPEGSSAANGTMECSSPGGGGSGGGGSLPETGGG
# modifications: non-natural residues
# B8: FcF2Δlinker-MMAE (conjugate)
# chain: EPKSCDKTHTCPPCPAPELLGGPSVFLFPPKPKDTLMISRTPEVTCVVVDVSHEDPEVKFNWYVDGVEVHNAKTKPREEQYNSTYRVVSVLTVDHHDWLNGKEYKCKVSNKALPAPIEKTISKAKGQPREPQVYTLPPSRDELTKNQVSLTCLVKGFYPSDIAVEWESNGQPENNYKTTPPVLDSDGSFFLYSKLTVDKSRWQQGNVFSCSVMHEALHSHYTQKSLSLSPGKSRGIKGKRQRRISAEGSQACAKGCELCSEVNGCLKCSPKLFILLERNDIRQVGVCLPSCPPGYFDARNPDMNKCIKCKIEHCEACFSHNFCTKCKEGLYLHKGRCYPACPEGSSAANGTMECSSPLPETGGG
# modifications: non-natural residues
# Legend:
# [1] = Stability of FcST4-MMAE (storage, low pH, freeze and thaw); type: physicochemical
# Experimental: Based on the hypothesis that RSPO1 could be used to target cytotoxic drugs selectively to CSC, a compound that contained 2 binding domains and armed this with the cytotoxin monomethylaurostatin (R1FF-MMAE) was generated. Since affinity of a ligand can be affected by the number of binding sites, tests were performed to see if the potency of R1FF-MMAE could be further enhanced by increasing the number of binding domains. A vector capable of expressing a protein containing 4 modified binding domains was constructed, and the FcST4-His protein was successfully produced in transiently transfected HEK293E cells and purified using nickel and ion exchange resins. Following attaching MMAE to the polypeptide using the sortase reaction, this drug (FcST4-MMAE) was characterized using gel electrophoresis, HPLC analysis on ion exchange and size exclusion columns, Western blot, and cytotoxicity testing.
# To assess the stability of the FcST4-MMAE molecule, the sample was subjected to multiple freeze and thaw cycles.
# [2] = test system: OVCAR8 cells expressing empty vector versus cells overexpressing LGR5 receptors; test: FcST4-MMAE cytotoxicity assay; type: cell-based, human
# [3] = test system: HEK293e empty vector cells versus cells overexpressing LGR5 receptors; test: FcST4-MMAE cytotoxicity assay (CCK8, day 6); type: cell-based, human; conditions: batches 2-6
# [4] = test system: OVCAR8/LGR5 cells; test: Growth rate inhibition assay (CCK8, 120 h exposure); type: cell-based, human
# [5] = Plasma pharmacokinetics after IV injection (ELISA)
# [6] = OVCAR8/EV vs OVCAR8/LGR5, 120 h, Fu1/Fu2 binding-disabling mutation study
# [7] = OVCAR8/EV and OVCAR8/LGR5, proteins produced in ExpiCHO
molecule,measurement,setting,value
B1,stability to freeze and thaw cycles (SEC130 trace),[1]; 4 cycles,no significant change in the SEC130 trace
same,stability,[1]; at 4° C.,remarkably stable
same,stability,[1]; low pH of 3.0,remarkably stable
same,"difference in targeted killing, empty vector vs LGR5-overexpressing cells",[2]; OVCAR8,not statistically significant
same,effect of increase in binding domains on potency,[2]; cytotoxicity testing,did not enhance potency
same,"difference in targeted killing, empty vector vs LGR5-overexpressing cells",[3],not statistically significant
B2,IC50 ratio,[4],approximately 10
B3,IC50 ratio,[4]; [6],5.1
B4,potency and selectivity for LGR5-rich cells compared with FcF2-MMAE (WT),[4],neither the R28A nor the R30A mutation altered potency of selectivity
B5,increase of AUC0-120 versus FcF2-MMAE (WT),[5]; IV injection,3.4 fold
same,initial half-life versus FcF2-MMAE (WT),[5]; IV injection,prolonged the initial half-life
same,plasma concentration higher than that of FcF2-MMAE,[5]; early phase of the plasma decay curve,> 2 orders of magnitude
same,potency and selectivity for LGR5-rich cells compared with FcF2-MMAE (WT),[4],neither the R28A nor the R30A mutation altered potency of selectivity
B6,IC50 ratio,[4]; [6],2.1
B7,IC50 ratio,[4]; [6],selectivity was abolished
B8,IC50 values or degree of selectivity compared with FcF2-MMAE,[4]; [7],no clear differences in IC50 values or degree of selectivity
same,potency compared with FcF2-MMAE,[4]; [7],appeared to be less potent against both LGR5-poor and LGR5-rich cells
